Assay results taken from patent US20120316071A1.

Tests used:
[1] = biological target: rHuman Erythropoietin R/Fc Chimera, CF (R&D Systems Cat#963-ER) (human) (UniProt P19235); experiment: ECL multispot (MSD) binding assay, antigen spotted on plate; note: test concentration or dose not given here
[2] = biological target: rHuman ErbB2/Fc Chimera, CF (R&D Systems Cat#1129-ER) (human) (UniProt P04626); experiment: MSD Multispot ECL, antigen spotted on plate, Fab in solution; blank spot of the row 373
[3] = biological target: rHuman IGF-1 sR, (IGF-1 sR), CF (R&D Systems Cat#391-GR) (human) (UniProt P08069); experiment: as above
[4] = biological target: rHuman ErbB2/Fc Chimera, CF (R&D Systems Cat#1129-ER) (human) (UniProt P04626); experiment: MSD Multispot ECL, antigen spotted on plate, Fab in solution; blank spot of the row 337
[5] = biological target: rHuman IGF-1 sR, (IGF-1 sR), CF (R&D Systems Cat#391-GR) (human) (UniProt P08069); experiment: as above
[6] = biological target: rHuman CD44/Fc Chimera, CF (R&D Systems Cat#3660-CD) (human) (UniProt P16070); experiment: MSD Multispot ECL, antigen spotted on plate, Fab in solution; blank spot of the row 297
[7] = biological target: rHuman ErbB2/Fc Chimera, CF (R&D Systems Cat#1129-ER) (human) (UniProt P04626); experiment: as above
[8] = biological target: rHuman IGF-1 sR, (IGF-1 sR), CF (R&D Systems Cat#391-GR) (human) (UniProt P08069); experiment: as above
[9] = biological target: rHuman CD44/Fc Chimera, CF (R&D Systems Cat#3660-CD) (human) (UniProt P16070); experiment: MSD Multispot ECL, antigen spotted on plate, Fab in solution; blank spot of the row 240
[10] = biological target: rHuman ErbB2/Fc Chimera, CF (R&D Systems Cat#1129-ER) (human) (UniProt P04626); experiment: as above
[11] = biological target: rHuman IGF-1 sR, (IGF-1 sR), CF (R&D Systems Cat#391-GR) (human) (UniProt P08069); experiment: as above
[12] = biological target: rHuman CD44/Fc Chimera, CF (R&D Systems Cat#3660-CD) (human) (UniProt P16070); experiment: MSD Multispot ECL, antigen spotted on plate, Fab in solution; blank spot of the row 424
[13] = biological target: rHuman ErbB2/Fc Chimera, CF (R&D Systems Cat#1129-ER) (human) (UniProt P04626); experiment: as above
[14] = biological target: rHuman IGF-1 sR, (IGF-1 sR), CF (R&D Systems Cat#391-GR) (human) (UniProt P08069); experiment: as above
[15] = biological target: rHuman CD44/Fc Chimera, CF (R&D Systems Cat#3660-CD) (human) (UniProt P16070); experiment: ECL (MSD) multispot binding assay, antigen spotted on the plate, Fab in solution; blank spot of this well 213
[16] = biological target: rHuman EGF R/Fc Chimera, CF (R&D Systems Cat#344-ER) (human) (UniProt P00533); experiment: as above
[17] = biological target: rHuman ErbB2/Fc Chimera, CF (R&D Systems Cat#1129-ER) (human) (UniProt P04626); experiment: as above
[18] = biological target: rHuman HGF R/c-MET/Fc Chimera, CF (R&D Systems Cat#358-MT/CF) (human) (UniProt P08581); experiment: as above
[19] = biological target: rHuman IGF-1 sR, CF (R&D Systems Cat#391-GR) (human) (UniProt P08069); experiment: as above
[20] = biological target: rHuman Notch-1/Fc Chimera, CF (R&D Systems Cat#3647-TK) (human) (UniProt P46531); experiment: as above
[21] = biological target: rHuman CD44/Fc Chimera, CF (R&D Systems Cat#3660-CD) (human) (UniProt P16070); experiment: MSD Multispot ECL, antigen spotted on plate, Fab in solution; blank spot of the row 300
[22] = biological target: rHuman ErbB2/Fc Chimera, CF (R&D Systems Cat#1129-ER) (human) (UniProt P04626); experiment: as above
[23] = biological target: rHuman IGF-1 sR, (IGF-1 sR), CF (R&D Systems Cat#391-GR) (human) (UniProt P08069); experiment: as above
[24] = biological target: rHuman ErbB2/Fc Chimera, CF (R&D Systems Cat#1129-ER) (human) (UniProt P04626); experiment: MSD Multispot ECL, antigen spotted on plate, Fab in solution; blank spot of the row 351
[25] = biological target: rHuman IGF-1 sR, (IGF-1 sR), CF (R&D Systems Cat#391-GR) (human) (UniProt P08069); experiment: as above
[26] = biological target: rHuman ErbB2/Fc Chimera, CF (R&D Systems Cat#1129-ER) (human) (UniProt P04626); experiment: MSD Multispot ECL, antigen spotted on plate, Fab in solution; blank spot of the row 316
[27] = biological target: rHuman IGF-1 sR, (IGF-1 sR), CF (R&D Systems Cat#391-GR) (human) (UniProt P08069); experiment: as above
[28] = biological target: rHuman Erythropoietin R/Fc Chimera, CF (human) (UniProt P19235); experiment: ECL multispot (MSD) assay, antigen spotted on the plate, Fab in solution; blank spot of the same well 284; note: test concentration or dose not given here
[29] = biological target: rHuman Erythropoietin R/Fc Chimera (human) (UniProt P19235); experiment: ECL multispot (MSD) binding assay; antigen spotted on plate, Fab in solution; note: test concentration or dose not given here
[30] = biological target: rHuman EGF R/Fc Chimera, CF (R&D Systems Cat#344-ER) (human) (UniProt P00533); experiment: ECL Multispot (MSD), antigen spotted, Fab 0.50 (column head 'Fab [µM]'); blank 206
[31] = biological target: rHuman Erythropoietin R/Fc Chimera, CF (R&D Systems Cat#963-ER) (human) (UniProt P19235); experiment: as above
[32] = biological target: rHuman EGF R/Fc Chimera, CF (R&D Systems Cat#344-ER) (human) (UniProt P00533); experiment: ECL Multispot (MSD), antigen spotted, Fab 5.00 (column head 'Fab [µM]'); blank 268
[33] = biological target: rHuman Erythropoietin R/Fc Chimera, CF (R&D Systems Cat#963-ER) (human) (UniProt P19235); experiment: as above
[34] = biological target: rHuman EGF R/Fc Chimera, CF (R&D Systems Cat#344-ER) (human) (UniProt P00533); experiment: ECL Multispot (MSD), antigen spotted, Fab 50.00 (column head 'Fab [µM]'); blank 223
[35] = biological target: rHuman Erythropoietin R/Fc Chimera, CF (R&D Systems Cat#963-ER) (human) (UniProt P19235); experiment: as above
[36] = biological target: rHuman EGF R/Fc Chimera, CF (R&D Systems Cat#344-ER) (human) (UniProt P00533); experiment: ECL Multispot (MSD), antigen spotted, Fab 500.00 (column head 'Fab [µM]'); blank 495
[37] = biological target: rHuman Erythropoietin R/Fc Chimera, CF (R&D Systems Cat#963-ER) (human) (UniProt P19235); experiment: as above
[38] = biological target: rHuman Erythropoietin R/Fc Chimera, CF (R&D Systems Cat#963-ER) (human) (UniProt P19235); experiment: ECL Multispot (MSD), antigen spotted; Fab 5 (µM); blank 102; first of duplicates
[39] = biological target: rHuman Erythropoietin R/Fc Chimera, CF (R&D Systems Cat#963-ER) (human) (UniProt P19235); experiment: ECL Multispot (MSD), antigen spotted; Fab 50 (µM); blank 332; first of duplicates
[40] = biological target: rHuman Erythropoietin R/Fc Chimera, CF (R&D Systems Cat#963-ER) (human) (UniProt P19235); experiment: ECL Multispot (MSD), antigen spotted; Fab 0.50 (µM); blank 95; first of duplicates
[41] = biological target: rHuman Erythropoietin R/Fc Chimera, CF (R&D Systems Cat#963-ER) (human) (UniProt P19235); experiment: ECL Multispot (MSD), antigen spotted; Fab 500 (µM); blank 570; first of duplicates
[42] = biological target: rHuman Erythropoietin R/Fc Chimera, CF (R&D Systems Cat#963-ER) (human) (UniProt P19235); experiment: MSD ECL multispot assay, antigen spotted on plate, Fab in solution; blank spot of this row 274; note: test concentration or dose not given here
[43] = biological target: rHuman Erythropoietin R/Fc Chimera, CF (R&D Systems Cat#963-ER) (human) (UniProt P19235); experiment: MSD ECL multispot assay, antigen spotted on plate, Fab in solution; blank spot of this row 277; note: test concentration or dose not given here
[44] = biological target: rHuman Erythropoietin R/Fc Chimera, CF (R&D Systems Cat#963-ER) (human) (UniProt P19235); experiment: MSD ECL multispot assay, antigen spotted on plate, Fab in solution; blank spot of this row 282; note: test concentration or dose not given here

“Fab VH1-46_IGHD6-6*01_IGHJ1*01 S102A/S103P/S104F/H111F (APFF) & L6_IGKJ1*01 S31A” gave an ECL signal [1] of 461.

Work on “Fab VH5-51_IGHD5-18*01>3_IGHJ4*01 G100K/G104T G24A & V3-4_IGLJ1*01” yielded an ECL signal [2] of 869 and an ECL signal [3] of 879.

“Fab VH5-51_IGHD5-18*01>3_IGHJ4*01 G100K/G104T F29A & V3-4_IGLJ1*01” gave an ECL signal [4] of 1040 and an ECL signal [5] of 945.

“Fab VH5-51_IGHD5-18*01>3_IGHJ4*01 G100K/G104T G35A & V3-4_IGLJ1*01” was tested, and the ECL signal [6] was 624, the ECL signal [7] was 911 and the ECL signal [8] was 899.

For “Fab VH5-51_IGHD5-18*01>3_IGHJ4*01 G100K/G104T (KT) & V3-4_IGLJ1*01”, the ECL signal [9] was 633, the ECL signal [10] was 1070 and the ECL signal [11] was 964. It also gave an ECL signal [12] of 579, an ECL signal [13] of 1100 and an ECL signal [14] of 877. For the same substance, the ECL signal [15] was 540, the ECL signal [16] was 768 and the ECL signal [17] was 1100. It also gave an ECL signal [18] of 867, an ECL signal [19] of 781 and an ECL signal [20] of 437.

For “Fab VH5-51_IGHD5-18*01>3_IGHJ4*01 G100K/G104T I34A & V3-4_IGLJ1*01”, the ECL signal [21] was 608, the ECL signal [22] was 1150 and the ECL signal [23] was 923.

“Fab VH5-51_IGHD5-18*01>3_IGHJ4*01 G100K/G104T T30A & V3-4_IGLJ1*01” was tested, and the ECL signal [24] was 1070 and the ECL signal [25] was 968.

For “Fab VH5-51_IGHD5-18*01>3_IGHJ4*01 G100K/G104T S28A & V3-4_IGLJ1*01”, the ECL signal [26] was 1070 and the ECL signal [27] was 924.

“Fab VH1-46_IGHD6-6*01_IGHJ1*01 S102A/S103P/S104F/H111F (APFF) & L6_IGKJ1*01 S31Y” was tested, and the ECL signal [28] was 604.

“Fab VH1-46_IGHD6-6*01_IGHJ1*01 S102A/S103P/S104F/H111F (APFF) & L6_IGKJ1*01” showed an ECL signal [29] of 433, an ECL signal [30] of 266 and an ECL signal [31] of 298. It also gave an ECL signal [32] of 303, an ECL signal [33] of 423 and an ECL signal [34] of 552. For the same substance, the ECL signal [35] was 879, the ECL signal [36] was 2900 and the ECL signal [37] was 4970. It also gave an ECL signal [38] of 294, an ECL signal [39] of 736 and an ECL signal [40] of 122. The ECL signal [41] was 4720, the ECL signal [42] was 473 and the ECL signal [43] was 467. It also gave an ECL signal [44] of 1060.
